# Source: patent US20220218785A1 (ALPINE IMMUNE SCIENCES, published 2022)
# T1: human ICOS (human, UniProt Q9Y6W8 21-199)
# T1 construct: whole, on cells
# T1 sequence (looked up): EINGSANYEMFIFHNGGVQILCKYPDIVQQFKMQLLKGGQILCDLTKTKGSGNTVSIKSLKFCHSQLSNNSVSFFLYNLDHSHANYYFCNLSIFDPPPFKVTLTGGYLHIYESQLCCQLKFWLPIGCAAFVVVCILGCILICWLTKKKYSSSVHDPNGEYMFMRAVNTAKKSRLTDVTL
# T2: ICOSL labeled with AlexaFluor-647 (UniProt O75144 19-256, limits assumed, labeled with AlexaFluor-647)
# T2 sequence (looked up): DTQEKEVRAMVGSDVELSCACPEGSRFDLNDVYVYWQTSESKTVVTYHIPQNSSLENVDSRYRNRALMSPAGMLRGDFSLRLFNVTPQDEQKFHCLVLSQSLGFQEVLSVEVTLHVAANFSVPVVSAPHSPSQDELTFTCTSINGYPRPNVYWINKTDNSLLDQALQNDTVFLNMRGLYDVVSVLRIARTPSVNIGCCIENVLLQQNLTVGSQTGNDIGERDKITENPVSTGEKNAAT
# Experiments:
# [1] = target: CD80 (ligand of the blocking assay) (UniProt P33681); test: competition, flow cytometry: CD80 on CHO cells expressing CD28
# Chain of CD80 (ligand of the blocking assay) (P33681 35-242 limits assumed): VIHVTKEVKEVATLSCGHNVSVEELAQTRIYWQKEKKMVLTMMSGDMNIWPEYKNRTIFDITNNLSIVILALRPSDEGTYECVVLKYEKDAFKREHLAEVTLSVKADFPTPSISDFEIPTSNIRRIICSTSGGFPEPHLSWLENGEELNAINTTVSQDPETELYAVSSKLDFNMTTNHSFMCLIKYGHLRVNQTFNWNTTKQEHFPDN
# [2] = target: CD86 labeled with AlexaFluor-647 (UniProt P42081); test: competition, flow cytometry: labelled CD86 on CHO cells expressing CD28
# Chain of CD86 labeled with AlexaFluor-647 (P42081 24-247 limits assumed): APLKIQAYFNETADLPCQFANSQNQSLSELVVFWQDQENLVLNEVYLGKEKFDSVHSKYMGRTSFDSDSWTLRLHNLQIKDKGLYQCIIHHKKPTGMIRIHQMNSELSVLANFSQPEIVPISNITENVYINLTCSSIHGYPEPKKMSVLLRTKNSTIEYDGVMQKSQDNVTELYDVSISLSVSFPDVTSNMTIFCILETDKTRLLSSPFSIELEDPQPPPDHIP
# human CTLA-4 [3] = target: T3, human CTLA-4 (human, UniProt P16410 36-223); test: flow cytometry, cells with human CTLA-4; protein from CHO
# T3 construct: whole, on cells
# T3 sequence (P16410 36-223): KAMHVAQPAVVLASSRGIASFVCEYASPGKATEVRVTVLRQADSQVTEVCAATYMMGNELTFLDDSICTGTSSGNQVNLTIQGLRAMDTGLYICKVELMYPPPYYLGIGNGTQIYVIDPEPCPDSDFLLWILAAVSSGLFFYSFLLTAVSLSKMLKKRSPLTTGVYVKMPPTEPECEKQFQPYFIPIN
# human CD28 (human) = human CD28 (human) (UniProt P10747); test: flow cytometry, cells with human CD28; protein from CHO
# human ICOS [4] = target: T1, human ICOS; test: flow cytometry, cells with human ICOS; protein from CHO
# [5] = target: human CD28, full-length, on transfected cells (human) (UniProt P10747); test: flow cytometry on transfected HEK293 cells
# [6] = target: T2, ICOSL labeled with AlexaFluor-647; test: competition, flow cytometry: labelled ICOSL on CHO cells expressing ICOS
# human CD28 [7] = target: T4, human CD28 (human, UniProt P10747 19-220); test: flow cytometry, cells with human CD28; protein from CHO
# T4 construct: whole, on cells
# human CD28 [8] = target: T4, human CD28; test: as above; remark: listed apart in the source
# human ICOS [9] = target: T1, human ICOS; test: flow cytometry, cells with human ICOS; protein from CHO; remark: listed apart in the source
# human ICOS [10] = target: T1, human ICOS; test: flow cytometry, cells with human ICOS; protein from 293
# human CTLA-4 [11] = target: T3, human CTLA-4; test: flow cytometry, cells with human CTLA-4; protein from 293
# human CTLA-4 [12] = target: T3, human CTLA-4; test: flow cytometry, cells with human CTLA-4; protein from CHO; remark: listed apart in the source
# human ICOS [13] = target: T1, human ICOS; test: flow cytometry, cells with human ICOS; protein from CHO; remark: listed apart in the source
# human CD28 [14] = target: T4, human CD28; test: flow cytometry, cells with human CD28; protein from 293
# human CTLA-4 [15] = target: T3, human CTLA-4; test: flow cytometry, cells with human CTLA-4; protein from CHO; remark: listed apart in the source
MFI (ΔWT) (human CD28 [7]) [fold vs WT],MFI (ΔWT) (human CD28 [8]) [fold vs WT],MFI (ΔWT) (human ICOS [9]) [fold vs WT],MFI (ΔWT) (human ICOS [10]) [fold vs WT],MFI (ΔWT) (human CTLA-4 [11]) [fold vs WT],MFI (ΔWT) (human CTLA-4 [12]) [fold vs WT],MFI (ΔWT) (human ICOS [13]) [fold vs WT],MFI (ΔWT) (human CD28 [14]) [fold vs WT],MFI (ΔWT) (human CTLA-4 [15]) [fold vs WT],Molecule,further results
–,–,–,–,–,–,–,–,–,belatacept (Fc fusion),IC50 [1]: 2.5 nM; IC50 [2]: 2.8 nM
–,–,–,–,–,–,–,–,–,ICOSL ECD Truncation #8 with N207G/L208G and N52H/N57Y/Q100R/C198R and Y151H (from UniProt O75144 19-224) (Fc fusion),MFI (human CTLA-4 [3]): 368000 MFI; MFI (ΔWT) (human CTLA-4 [3]): 48.6 fold vs WT; MFI (human CD28 (human)): 94200 MFI; MFI (ΔWT) (human CD28 (human)): 54.5 fold vs WT; MFI (human ICOS [4]): 143000 MFI
–,–,–,–,–,–,–,–,–,"variant ICOSL ECD-Fc M10I, S13G, N52H, N57Y, D77G, V110A, H129P, I143V, F172S, V193M, C198R (Fc fusion)",MFI [5]: 6000 MFI
–,–,–,–,–,–,–,–,–,"prezalumab (AMG-557; anti-ICOSL, Creative Biolabs) (antibody, V domains shown) VH: EVQLVESGGGLVQPGGSLRLSCAASGFTFSSYWMSWVRQAPGKGLEWVAYIKQDGNEKYYVDSVKGRFTISRDNAKNSLYLQMNSLRAEDTAVYYCAREGILWFGDLPTFWGQGTLVTVSS VL: DIQMTQSPSSLSASVGDRVTITCRASQGISNWLAWYQQKPEKAPKSLIYAASSLQSGVPSRFSGSGSGTDFTLTISSLQPEDFATYYCQQYDSYPRTFGQGTKVEIK",IC50 [6]: 23.3 nM
3.6,39.7,1.3,0.6,0.7,0.7,0.7,4.1,49.8,"ICOSL ECD Truncation #4 with N52H/N57Y/Q100R/F172S, Fc fusion (Fc fusion) DTQEKEVRAMVGSDVELSCACPEGSRFDLNDVYVYWQTSESKTVVTYHIPQHSSLEYVDSRYRNRALMSPAGMLRGDFSLRLFNVTPQDEQKFHCLVLSRSLGFQEVLSVEVTLHVAANFSVPVVSAPHSPSQDELTFTCTSINGYPRPNVYWINKTDNSLLDQALQNDTVSLNMRGLYDVVSVLRIARTPSVNIGCCIENVLLQQNGGGGSGGGGSEPKSSDKTHTCPPCPAPEAEGAPSVFLFPPKPKDTLMISRTPEVTCVVVDVSHEDPEVKFNWYVDGVEVHNAKTKPREEQYNSTYRVVSVLTVLHQDWLNGKEYKCKVSNKALPAPIEKTISKAKGQPREPQVYTLPPSREEMTKNQVSLTCLVKGFYPSDIAVEWESNGQPENNYKTTPPVLDSDGSFFLYSKLTVDKSRWQQGNVFSCSVMHEALHNHYTQKSLSLSPG",–
4.9,49,1.2,0.8,0.8,0.7,0.7,4.7,27,"ICOSL IgV with N52H/N57Y/Q100R, Fc fusion with (G4S)2 linker (Fc fusion, also called ICOSCL IgV with N52H/N57Y/Q100R) DTQEKEVRAMVGSDVELSCACPEGSRFDLNDVYVYWQTSESKTVVTYHIPQHSSLEYVDSRYRNRALMSPAGMLRGDFSLRLFNVTPQDEQKFHCLVLSRSLGFQEVLSVEVTLHVAANFSVGGGGSGGGGSEPKSSDKTHTCPPCPAPEAEGAPSVFLFPPKPKDTLMISRTPEVTCVVVDVSHEDPEVKFNWYVDGVEVHNAKTKPREEQYNSTYRVVSVLTVLHQDWLNGKEYKCKVSNKALPAPIEKTISKAKGQPREPQVYTLPPSREEMTKNQVSLTCLVKGFYPSDIAVEWESNGQPENNYKTTPPVLDSDGSFFLYSKLTVDKSRWQQGNVFSCSVMHEALHNHYTQKSLSLSPG",–
4.1,63.9,1.4,1.4,0.7,0.7,1.1,3.6,42.6,"ICOSL ECD with N52H/N57Y/Q100R/F172S, Fc fusion with (G4S)2 linker (Fc fusion, also called ICOSCL ECD with N52H/N57Y/Q100R/F1725) DTQEKEVRAMVGSDVELSCACPEGSRFDLNDVYVYWQTSESKTVVTYHIPQHSSLEYVDSRYRNRALMSPAGMLRGDFSLRLFNVTPQDEQKFHCLVLSRSLGFQEVLSVEVTLHVAANFSVPVVSAPHSPSQDELTFTCTSINGYPRPNVYWINKTDNSLLDQALQNDTVSLNMRGLYDVVSVLRIARTPSVNIGCCIENVLLQQNLTVGSQTGNDIGERDKITENPVSTGEKNAATGGGGSGGGGSEPKSSDKTHTCPPCPAPEAEGAPSVFLFPPKPKDTLMISRTPEVTCVVVDVSHEDPEVKFNWYVDGVEVHNAKTKPREEQYNSTYRVVSVLTVLHQDWLNGKEYKCKVSNKALPAPIEKTISKAKGQPREPQVYTLPPSREEMTKNQVSLTCLVKGFYPSDIAVEWESNGQPENNYKTTPPVLDSDGSFFLYSKLTVDKSRWQQGNVFSCSVMHEALHNHYTQKSLSLSPG",–
